The values that follow come from patent publication US20240190989A1 (BEIGENE SWITZERLAND, published 2024).

For assay [1], the target named is T1, full-length human CD137 on cells (Hut78/huCD137, HEK293 transfectants, JK-NFKB-CD137) (human, UniProt Q07011 24-255). Kind of assay: cell-based or functional assay.
For assay [2], the target named is T2, full-length human CEA on cells (MKN45, LOVO, L929/huCEA, CT26/CEA, CT26-OS8-CEA) (human, UniProt P06731 35-685).
T2 construct: also called CEACAM5; native CEA
T2 sequence: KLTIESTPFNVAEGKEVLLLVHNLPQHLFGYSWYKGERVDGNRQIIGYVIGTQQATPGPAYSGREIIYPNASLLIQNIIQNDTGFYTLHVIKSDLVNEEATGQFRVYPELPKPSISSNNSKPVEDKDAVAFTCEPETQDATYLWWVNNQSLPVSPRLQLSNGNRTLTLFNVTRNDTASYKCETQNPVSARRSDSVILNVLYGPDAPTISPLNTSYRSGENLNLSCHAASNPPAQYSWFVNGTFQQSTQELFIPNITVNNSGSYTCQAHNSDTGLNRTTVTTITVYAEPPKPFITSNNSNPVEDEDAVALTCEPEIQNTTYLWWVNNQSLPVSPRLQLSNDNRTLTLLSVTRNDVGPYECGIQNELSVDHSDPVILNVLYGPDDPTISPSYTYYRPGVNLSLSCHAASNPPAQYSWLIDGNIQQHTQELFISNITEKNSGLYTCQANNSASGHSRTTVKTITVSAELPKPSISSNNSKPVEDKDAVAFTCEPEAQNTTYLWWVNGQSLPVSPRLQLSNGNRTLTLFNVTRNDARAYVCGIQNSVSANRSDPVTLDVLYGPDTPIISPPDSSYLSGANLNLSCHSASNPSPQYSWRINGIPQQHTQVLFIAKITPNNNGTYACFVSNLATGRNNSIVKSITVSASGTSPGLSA
Kind of assay: FACS on CT26-OS8-CEA cells.

Assay [3] deals with T3, soluble human CEA, amino acids 1-687 of huCEA with C-terminal 6xHis tag (human, UniProt P06731 35-687).
T3 construct: also called sCEA; soluble huCEA
T3 sequence: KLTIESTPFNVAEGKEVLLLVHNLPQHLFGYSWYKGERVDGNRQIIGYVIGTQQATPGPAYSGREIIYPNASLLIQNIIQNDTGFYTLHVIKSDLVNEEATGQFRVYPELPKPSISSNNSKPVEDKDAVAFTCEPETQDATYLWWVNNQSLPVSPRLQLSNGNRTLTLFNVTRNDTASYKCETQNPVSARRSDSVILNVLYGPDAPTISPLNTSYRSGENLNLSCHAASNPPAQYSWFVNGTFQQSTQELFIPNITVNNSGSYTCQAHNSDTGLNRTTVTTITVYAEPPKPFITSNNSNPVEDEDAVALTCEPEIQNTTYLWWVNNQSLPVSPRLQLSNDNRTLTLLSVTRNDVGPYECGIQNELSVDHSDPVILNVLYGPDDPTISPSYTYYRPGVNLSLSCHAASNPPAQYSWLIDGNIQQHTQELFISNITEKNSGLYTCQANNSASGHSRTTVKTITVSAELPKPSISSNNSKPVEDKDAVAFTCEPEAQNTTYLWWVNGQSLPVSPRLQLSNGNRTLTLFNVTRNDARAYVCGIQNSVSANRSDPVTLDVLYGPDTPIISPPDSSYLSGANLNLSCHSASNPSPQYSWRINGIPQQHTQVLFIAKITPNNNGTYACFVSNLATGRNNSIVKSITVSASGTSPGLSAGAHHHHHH
Put plainly: SPR, Human CEA.

Assay [4] deals with T4, human CD137 ECD-mIgG2a (human).
T4 construct: ECD 24-183 of huCD137 fused to mouse IgG2a Fc; also called huCD137-mIgG2a; huCD137
Put plainly: SPR, Human CD137. (In general: Surface plasmon resonance follows binding to a sensor surface in real time, without labels.)

Assay [5] concerns the target T5, mouse CD137 (recombinant protein, SPR) (mouse, UniProt P20334 24-187, limits assumed).
T5 construct: also called murine CD137
T5 sequence (looked up): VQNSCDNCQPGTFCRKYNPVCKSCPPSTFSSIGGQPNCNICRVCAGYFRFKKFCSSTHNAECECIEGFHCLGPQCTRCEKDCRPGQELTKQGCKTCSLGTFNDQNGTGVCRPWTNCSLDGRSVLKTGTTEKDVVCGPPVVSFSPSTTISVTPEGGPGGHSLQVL
Kind of assay: SPR.

Assay [6] has as its target T3, soluble human CEA, amino acids 1-687 of …. Kind of assay: antigen ELISA on huCEA (CEA/His), two batches of BE-146 [panel A]. On the technique in general: An ELISA detects its analyte on a solid surface through an enzyme-linked reagent.
Assay [7] has as its target T1, full-length human CD137 on cells …. Put plainly: FACS on HuT78/CD137 cells.
Another assay deals with T6, cyno CD137 ECD-mIgG2a (monkey (Macaca mulatta gene; called …).
T6 chain: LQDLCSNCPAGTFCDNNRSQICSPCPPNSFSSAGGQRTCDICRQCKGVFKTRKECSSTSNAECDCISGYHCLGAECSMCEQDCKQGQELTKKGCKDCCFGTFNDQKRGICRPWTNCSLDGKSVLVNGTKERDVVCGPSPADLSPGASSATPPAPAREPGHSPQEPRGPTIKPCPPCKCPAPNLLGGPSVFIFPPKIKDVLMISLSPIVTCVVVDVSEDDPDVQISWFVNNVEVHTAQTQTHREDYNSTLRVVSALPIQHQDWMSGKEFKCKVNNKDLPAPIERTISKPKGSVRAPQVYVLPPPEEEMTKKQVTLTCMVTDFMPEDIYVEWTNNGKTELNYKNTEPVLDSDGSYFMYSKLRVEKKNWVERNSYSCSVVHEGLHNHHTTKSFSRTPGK
Put plainly: SPR, Monkey CD137.

The target of assay [8] is T4, human CD137 ECD-mIgG2a. Put plainly: antigen ELISA on huCD137-mIgG2a [panel B].

“And” between values parts separate entries of the source, which are not always exact repeats. Identical values can stand only once.

T1 sequence (Q07011 24-255 limits assumed): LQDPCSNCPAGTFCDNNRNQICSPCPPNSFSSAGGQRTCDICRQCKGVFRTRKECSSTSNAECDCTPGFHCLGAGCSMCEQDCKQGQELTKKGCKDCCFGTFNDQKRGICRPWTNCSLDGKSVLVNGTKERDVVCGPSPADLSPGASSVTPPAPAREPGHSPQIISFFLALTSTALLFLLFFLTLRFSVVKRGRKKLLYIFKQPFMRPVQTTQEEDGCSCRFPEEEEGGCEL

B1: BE-146 (CEAxCD137 multispecific antibody) (bispecific antibody, human IgG1, kappa)
heavy: QVQLVQSGAEVKKPGASVKVSCKASGYIFTSYYLHWVRQAPGQGLEWIGYINPQTGKTSYAQKFQGRVTMTRDTSTSTVYMELSSLRSEDTAVYYCAREYGNYNYPLDYWGQGTLVTVSSASTKGPSVFPLAPSSKSTSGGTAALGCLVKDYFPEPVTVSWNSGALTSGVHTFPAVLQSSGLYSLSSVVTVPSSSLGTQTYICNVNHKPSNTKVDKKVEPKSCDKTHTCPPCPAPPAAGPSVFLFPPKPKDTLMISRTPEVTCVVVDVSHEDPEVKFNWYVDGVEVHNAKTKPREEQYNSTYRVVSVLTVLHQDWLNGKEYKCKVSNKALAAPIEKTISKAKGQPREPQVYTLPPSREEMTKNQVSLTCLVKGFYPSDIAVEWESNGQPENNYKTTPPVLDSDGSFFLYSKLTVDKSRWQQGNVFSCSVMHEALHNHYTQKSLSLSPGKGGGGSEVQLLESGGGLVQPGGSLRLSCAASGFTVSAEDVGWVRQAPGKGLEWVSAILDKGGSTYYAESVKGRFTISRDNAKNTLYLQMSSLRAEDTAVYYCARIVYHAGGGVTFDTRGQGTQVTVSS
light: DIQMTQSPSSLSASVGDRVTITCRASENQYGYLAWYQQKPGKVPKLLIYNYKNLVEGVPSRFSGSGSGTDFTLTISSLQPEDVATYYCQHHLGTPYTFGQGTKVEIKRTVAAPSVFIFPPSDEQLKSGTASVVCLLNNFYPREAKVQWKVDNALQSGNSQESVTEQDSKDSTYSLSSTLTLSKADYEKHKVYACEVTHQGLSSPVTKSFNRGEC
notes: Module ratio 2:2, Fc null version of huIgG1; copies: 2 + 2
The term EC50 denotes the concentration at which the effect is half-maximal. As usually defined, the Kd is a measure of binding affinity in units of concentration. The koff is the first-order rate constant of dissociation. By kon is commonly meant the rate constant with which the complex forms. Broadly, the EC50 (read off the curve) is the concentration that produces a half-maximal response. On to B1, for which the “NF-kB luciferase reporter in JK-NFKB-CD137 cells co-cultured with CT26-OS8-CEA, EC50” value in [1] was 0.51 µg/mL and 2.91 nM and 0.56 µg/mL and 3.2 nM. The half-maximal effective concentration (EC50) in [2] was 1.53 µg/mL and 8.75 nM; in assay [7] it was 2.26 µg/mL and 12.9 nM. The Kd is 3 nM in assay [3], 36.2 nM with human CD137 ECD-mIgG2a [4] and 15.9 nM with cyno CD137 ECD-mIgG2a. In addition, the koff in assay [3] was determined as 0.000295 s⁻¹; with human CD137 ECD-mIgG2a [4], 0.00469 s⁻¹; with cyno CD137 ECD-mIgG2a, 0.00266 s⁻¹. Further, the kon in [3] came to 98500 M⁻¹ s⁻¹; in the assay with human CD137 ECD-mIgG2a [4], 130000 M⁻¹ s⁻¹; with cyno CD137 ECD-mIgG2a it was 167000 M⁻¹ s⁻¹. Further, the binding result in assay [5] is given as “no binding”. Moreover, the “EC50 (read off the curve)” value in assay [6] was approximately 0.07 µg/mL; in the assay with human CD137 ECD-mIgG2a [8] it was approximately 0.08 µg/mL.
